In paper doi:10.1101/2024.05.21.594841 (bioRxiv, 2024):

Legend:
Assay in all cases: split reporter
Sec20p = biological target: T1, Sec20p (S. cerevisiae, UniProt P28791 1-383)
T1 sequence: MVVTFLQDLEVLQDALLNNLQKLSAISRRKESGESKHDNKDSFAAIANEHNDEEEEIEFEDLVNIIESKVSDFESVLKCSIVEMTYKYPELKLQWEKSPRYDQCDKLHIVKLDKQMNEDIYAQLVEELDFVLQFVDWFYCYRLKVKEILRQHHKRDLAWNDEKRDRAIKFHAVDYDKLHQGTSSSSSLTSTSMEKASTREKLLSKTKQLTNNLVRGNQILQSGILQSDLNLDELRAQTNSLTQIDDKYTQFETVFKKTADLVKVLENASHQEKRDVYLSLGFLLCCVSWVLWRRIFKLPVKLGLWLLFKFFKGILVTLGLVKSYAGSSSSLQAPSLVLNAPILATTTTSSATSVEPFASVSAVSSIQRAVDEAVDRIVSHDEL

Sil1p = biological target: T2, Sil1p (S. cerevisiae, UniProt Q08199 20-421)
T2 sequence: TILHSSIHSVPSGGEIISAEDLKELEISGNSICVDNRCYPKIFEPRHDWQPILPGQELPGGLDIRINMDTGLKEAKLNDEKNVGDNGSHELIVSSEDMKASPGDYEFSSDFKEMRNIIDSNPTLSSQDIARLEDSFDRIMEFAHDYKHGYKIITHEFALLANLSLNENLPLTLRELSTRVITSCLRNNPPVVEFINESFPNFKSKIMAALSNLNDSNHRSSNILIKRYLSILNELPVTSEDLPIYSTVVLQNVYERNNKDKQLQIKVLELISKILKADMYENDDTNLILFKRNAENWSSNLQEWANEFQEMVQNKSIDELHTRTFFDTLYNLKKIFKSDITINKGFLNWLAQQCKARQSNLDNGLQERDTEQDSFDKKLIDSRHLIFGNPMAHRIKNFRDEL

Cpr5p = Cpr5p (S. cerevisiae, UniProt P35176 23-225)
Sed4p = biological target: T3, Sed4p (S. cerevisiae, UniProt P25365 1-1065)
T3 sequence: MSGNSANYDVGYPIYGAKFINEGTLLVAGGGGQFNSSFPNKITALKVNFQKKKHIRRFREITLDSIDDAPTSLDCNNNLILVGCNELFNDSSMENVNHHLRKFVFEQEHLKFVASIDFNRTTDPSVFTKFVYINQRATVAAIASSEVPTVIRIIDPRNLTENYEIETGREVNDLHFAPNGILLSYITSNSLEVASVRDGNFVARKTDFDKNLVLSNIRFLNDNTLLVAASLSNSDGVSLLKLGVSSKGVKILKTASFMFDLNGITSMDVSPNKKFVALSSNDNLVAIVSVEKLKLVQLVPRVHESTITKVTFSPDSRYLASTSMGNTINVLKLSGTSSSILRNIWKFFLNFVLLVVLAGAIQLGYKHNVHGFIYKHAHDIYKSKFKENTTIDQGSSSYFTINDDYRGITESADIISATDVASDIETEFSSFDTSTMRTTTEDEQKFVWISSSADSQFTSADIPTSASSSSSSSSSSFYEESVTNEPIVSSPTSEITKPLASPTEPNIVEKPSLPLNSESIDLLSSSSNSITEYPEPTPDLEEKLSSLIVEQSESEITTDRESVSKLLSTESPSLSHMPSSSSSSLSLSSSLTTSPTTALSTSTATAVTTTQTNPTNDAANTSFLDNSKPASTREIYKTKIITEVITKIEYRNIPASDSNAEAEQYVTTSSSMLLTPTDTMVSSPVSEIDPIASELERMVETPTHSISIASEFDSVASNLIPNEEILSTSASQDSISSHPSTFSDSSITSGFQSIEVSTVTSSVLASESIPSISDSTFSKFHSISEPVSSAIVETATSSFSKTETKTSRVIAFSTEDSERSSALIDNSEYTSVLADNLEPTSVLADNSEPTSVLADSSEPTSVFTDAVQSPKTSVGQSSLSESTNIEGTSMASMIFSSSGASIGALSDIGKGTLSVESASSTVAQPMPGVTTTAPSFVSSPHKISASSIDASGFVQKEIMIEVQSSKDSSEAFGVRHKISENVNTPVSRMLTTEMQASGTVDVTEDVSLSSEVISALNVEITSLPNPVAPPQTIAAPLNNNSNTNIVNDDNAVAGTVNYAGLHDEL

Sequence of Cpr5p (P35176 23-225): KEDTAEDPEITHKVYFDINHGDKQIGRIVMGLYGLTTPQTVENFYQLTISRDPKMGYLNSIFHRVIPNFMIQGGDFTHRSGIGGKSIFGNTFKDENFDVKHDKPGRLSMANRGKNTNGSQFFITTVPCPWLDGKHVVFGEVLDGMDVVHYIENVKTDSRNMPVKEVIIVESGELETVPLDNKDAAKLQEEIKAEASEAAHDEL

B1: Lhs1p (natural protein)
chain: AVLGVDYGQQNIKAIVVSPQAPLELVLTPEAKRKEISGLSIKRLPGYGKDDPNGIERIYGSAVGSLATRFPQNTLLHLKPLLGKSLEDETTVTLYSKQHPGLEMVSTNRSTIAFLVDNVEYPLEELVAMNVQEIANRANSLLKDRDARTEDFVNKMSFTIPDFFDQHQRKALLDASSITTGIEETYLVSEGMSVAVNFVLKQRQFPPGEQQHYIVYDMGSGSIKASMFSILQPEDTTQPVTIEFEGYGYNPHLGGAKFTMDIGSLIENKFLETHPAIRTDELHANPKALAKINQAAEKAKLILSANSEASINIESLINDIDFRTSITRQEFEEFIADSLLDIVKPINDAVTKQFGGYGTNLPEINGVILAGGSSRIPIVQDQLIKLVSEEKVLRNVNADESAVNGVVMRGIKLSNSFKTKPLNVVDRSVNTYSFKLSNESELYDVFTRGSAYPNKTSILTNTTDSIPNNFTIDLFENGKLFETITVNSGAIKNSYSSDKCSSGVAYNITFDLSSDRLFSIQEVNCICQSENDIGNSKQIKNKGSRLAFTSEDVEIKRLSPSERSRLHEHIKLLDKQDKERFQFQENLNVLESNLYDARNLLMDDEVMQNGPKSQVEELSEMVKVYLDWLEDASFDTDPEDIVSRIREIGILKKKIELYMDSAKEPLNSQQFKGMLEEGHKLLQAIETHKNTVEEFLSQFETEFADTIDNVREEFKKIKQPAYVSKALSTWEETLTSFKNSISEIEKFLAKNLFGEDLREHLFEIKLQFDMYRTKLEEKLRLIKSGDESRLNEIKKLHLRNFRLQKRKEEKLKRKLEQEKSRNNNETESTVINSADDKTTIVNDKTTESNPSSEEDILHDEL
Sec20p
  normalized interacting score: 20%
Sil1p
  normalized interacting score: 93%
Cpr5p
  normalized interacting score: > 40%
Sed4p
  normalized interacting score: > 40%
